These results are taken from US20080058263A1 (published 2008).

Where a chain is given by its changes, count along the chain named.

The chains are these.
T1: VEGFR-3-Fc (UniProt P35916 25-328)
T1 construct: domain: first three Ig domains; conditioned supernatant of 293T cells; also called VEGFR-3-Fc fusion protein; not shown: Fc fragment of the pIg vector
T1 sequence (looked up): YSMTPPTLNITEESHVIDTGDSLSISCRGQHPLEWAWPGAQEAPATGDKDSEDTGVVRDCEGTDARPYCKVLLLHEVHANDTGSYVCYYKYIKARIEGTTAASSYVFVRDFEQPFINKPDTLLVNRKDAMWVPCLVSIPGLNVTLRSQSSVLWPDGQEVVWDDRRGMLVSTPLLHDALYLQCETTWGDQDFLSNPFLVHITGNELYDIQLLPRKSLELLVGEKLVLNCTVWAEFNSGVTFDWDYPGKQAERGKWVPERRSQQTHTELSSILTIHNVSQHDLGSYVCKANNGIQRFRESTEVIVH

B1: 84-7 (ligand)
chain: AHYNTEILKFMDVYQRSYCHPIETLVDIFQEFGVATNTFFKPSCVPLMRCGGCCNSEGLQCVPTEESNITMQIMRIKPHQGQHIGEMSFANHTSCRCMSKLD
B2: 22-13 (ligand)
chain: AHYNTEILKSIDNEWRKTQCMPREVCIDVGKEFGVATNTFFKPPCVSVYRCGGCCNDEGLECVPTEESNITMQIMRITVPLSQGPKPVTISFANHTSCRCMSKLD
B3: 22-15 (ligand)
chain: B2 chain with D57S, E61Q
B4: 31-1 (ligand)
chain: GQNHHEVVKSIDNEWRKTQCMPIETLVDIFQEYPDEIEYIFKPSCVPLMRCGGCCNDEGLECVPTEESNITMQIMRIKPHQGQHIGEMSFLQHNKCECRPKKD
B5: 14-1 (ligand)
chain: GQNHHEVVKFMDVYQRSYCHPIETLVDIFQEFGVATNTFFKPSCVPLMRCGGCCNDEGLECVPTEESNITMQIMRIKPHQGQHIGEMSFLQHNKCECRPKKD
B6: 14-5 (ligand)
chain: B5 chain with L90A, Q91N, N93T, K94S, E96R, R98M, P99S, K101L
B7: 14-3 (ligand)
chain: B5 chain with D56S, E60Q
B8: 14-7 (ligand)
chain: B1 chain with A1G, H2Q, Y3N, N4H, T5H, I7V, L8V
B9: 23-8 (ligand)
chain: AHYNTEILKSIDNEWRKTQCMPREVCIDVGKEYPDEIEYIFKPPCVSVYRCGGCCNSEGLQCMNTSTSYLSKTLFEIKPHQGQHIGEMSFANHTSCRCMSKLD
B10: 71-6 (ligand)
chain: GQNHHEVVKSIDNEWRKTQCMPREVCIDVGKEYPDEIEYIFKPSCVPLMRCGGCCNDEGLECMNTSTSYLSKTLFEIKPHQGQHIGEMSFANHTSCRCMSKLD
B11: 53-6 (ligand)
chain: B9 chain with R23I, V25T, C26L, I27V, V29I, G30F, K31Q, S57D, Q61E
B12: 53-8 (ligand)
chain: B9 chain with R23I, V25T, C26L, I27V, V29I, G30F, K31Q
B13: 51-6 (ligand)
chain: AHYNTEILKSIDNEWRKTQCMPIETLVDIFQEYPDEIEYIFKPSCVPLMRCGGCCNDEGLECMNTSTSYLSKTLFEIKPHQGQHIGEMSFANHTSCRCMSKLD
B14: 73-6 (ligand)
chain: B10 chain with S44P, P47S, L48V, M49Y
B15: 24-6 (ligand)
chain: AHYNTEILKSIDNEWRKTQCMPREVCIDVGKEFGVATNTFFKPSCVPLMRCGGCCNDEGLECMNTSTSYLSKTLFEIKPHQGQHIGEMSFANHTSCRCMSKLD
B16: 73-8 (ligand)
chain: B10 chain with S44P, P47S, L48V, M49Y, D57S, E61Q
B17: 81-9 (ligand)
chain: AHYNTEILKFMDVYQRSYCHPIETLVDIFQEYPDEIEYIFKPSCVPLMRCGGCCNDEGLECVPTEESNITMQIMRITVPLSQGPKPVTISFLQHNKCECRPKKD
B18: 81-15 (ligand)
chain: B17 chain with D56S, E60Q, L92A, Q93N, N95T, K96S, E98R, R100M, P101S, K103L
B19: 81-13 (ligand)
chain: B17 chain with L92A, Q93N, N95T, K96S, E98R, R100M, P101S, K103L
B20: 81-11 (ligand)
chain: B17 chain with D56S, E60Q
B21: 72-1 (ligand)
chain: GQNHHEVVKSIDNEWRKTQCMPREVCIDVGKEFGVATNTFFKPPCVSVYRCGGCCNDEGLECVPTEESNITMQIMRIKPHQGQHIGEMSFLQHNKCECRPKKD
B22: 13-9 (ligand)
chain: GQNHHEVVKFMDVYQRSYCHPIETLVDIFQEYPDEIEYIFKPPCVSVYRCGGCCNDEGLECVPTEESNITMQIMRITVPLSQGPKPVTISFLQHNKCECRPKKD
B23: 13-11 (ligand)
chain: B22 chain with D56S, E60Q
B24: 13-1 (ligand)
chain: GQNHHEVVKFMDVYQRSYCHPIETLVDIFQEYPDEIEYIFKPPCVSVYRCGGCCNDEGLECVPTEESNITMQIMRIKPHQGQHIGEMSFLQHNKCECRPKKD
B25: 13-5 (ligand)
chain: B24 chain with L90A, Q91N, N93T, K94S, E96R, R98M, P99S, K101L
B26: 13-7 (ligand)
chain: B24 chain with D56S, E60Q, L90A, Q91N, N93T, K94S, E96R, R98M, P99S, K101L
B27: 12-14 (ligand)
chain: GQNHHEVVKFMDVYQRSYCHPIETLVDIFQEFGVATNTFFKPPCVSVYRCGGCCNDEGLECMNTSTSYLSKTLFEITVPLSQGPKPVTISFANHTSCRCMSKLDL

One test deals with T2, VEGFR-1-Fc (UniProt P17948 27-338).
T2 construct: domain: first three Ig domains; expressed in Drosophila S2 cells, purified on Protein A sepharose; also called VEGFR-1-Fc fusion protein; not shown: Fc fragment from the Signal-pIgPlus vector
T2 sequence (P17948 27-338): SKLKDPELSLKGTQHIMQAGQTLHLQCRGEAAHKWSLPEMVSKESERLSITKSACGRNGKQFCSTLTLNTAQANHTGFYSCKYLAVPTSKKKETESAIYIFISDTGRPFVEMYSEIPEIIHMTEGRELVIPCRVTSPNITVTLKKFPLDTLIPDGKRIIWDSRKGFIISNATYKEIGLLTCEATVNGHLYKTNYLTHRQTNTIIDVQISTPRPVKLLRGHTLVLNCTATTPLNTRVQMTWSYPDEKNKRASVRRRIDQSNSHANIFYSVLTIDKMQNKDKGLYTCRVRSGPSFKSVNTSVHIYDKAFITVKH
Briefly: receptor-Fc IP. In a few lines: (§1)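 Binding of ligand from sample supernatant measured by pentahistidine-antibody immunoprecipitation. IP mix: PBS with 1.5% BSA, 0.06% Tween 20, 3 μg/ml heparin and 400 ng/ml fusion protein, added 1:2 to sample supernatant.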
As for B1, the binding result is “no binding”.
Still for that read-out and setting: next, B2: “no binding”; B3: “no binding”; B4: “no binding”.
In the case of B5, the binding result is listed as “binds”.
For the molecule B6, the binding result is on record as “binds”.
Turning to B7, the binding result is recorded as “binds”.
Turning to B8, the binding result was “no binding”.
Consider B9, for which the binding result is listed as “no binding”.
On the same count and under the same terms, next, B10: “no binding”.
On the same count and under the same terms, next, B11: “no binding”; B12: “no binding”; B13: “no binding”.
Turning to B14, the binding result was “no binding”.
For the molecule B15, the binding result is recorded as “no binding”.
B16: the binding result is listed as “no binding”.
Still for that read-out and setting: the same measure for B17: “binds”; for B18: “binds”.
The same measure, in the same setting: the same measure for B19: “binds”; for B20: “binds”; for B21: “no binding”.
Consider B22, for which the binding result is reported as “binds”.
As to B23, the binding result is “binds”.
On the same count and under the same terms, next, B24: “binds”.
Still for that read-out and setting: next, B25: “binds”; B26: “binds”.
Regarding B27, the binding result is listed as “no binding”.

For the next test, the target named is T3, VEGFR-2-Fc (UniProt P35968 20-322).
T3 construct: domain: first 3 Ig domains; conditioned supernatant of 293T cells; also called VEGFR-2-Fc fusion protein; not shown: Fc fragment of the pIg vector
T3 sequence (P35968 20-322): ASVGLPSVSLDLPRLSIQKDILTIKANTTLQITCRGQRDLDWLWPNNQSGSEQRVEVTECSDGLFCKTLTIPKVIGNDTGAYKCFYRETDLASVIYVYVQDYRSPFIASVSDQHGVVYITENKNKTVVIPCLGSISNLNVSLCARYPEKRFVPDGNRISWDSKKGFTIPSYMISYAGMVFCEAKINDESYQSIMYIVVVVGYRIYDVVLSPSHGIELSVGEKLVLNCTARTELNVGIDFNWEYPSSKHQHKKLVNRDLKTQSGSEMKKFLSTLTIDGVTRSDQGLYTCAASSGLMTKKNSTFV
Briefly: receptor-Fc IP. In a few lines:
as §1
For B1, the binding result is on record as “no binding”.
For the molecule B2, the binding result is “no binding”.
For the molecule B3, the binding result is reported as “no binding”.
The same measure, in the same setting: the same measure for B4: “no binding”; for B5: “no binding”; for B6: “no binding”.
On to B7, for which the binding result was “binds”.
In the case of B8, the binding result is “binds”.
For the molecule B9, the binding result is given as “no binding”.
Still for that read-out and setting: the same measure for B10: “no binding”.
As to B11, the binding result was “no binding”.
In the case of B12, the binding result is “no binding”.
Still for that read-out and setting: the same measure for B13: “no binding”; for B14: “no binding”; for B15: “no binding”.
On the same count and under the same terms, the same measure for B16: “no binding”; for B17: “no binding”.
Still for that read-out and setting: next, B18: “binds”; B19: “no binding”; B20: “binds”.
As for B21, the binding result is “no binding”.
Still for that read-out and setting: the same measure for B22: “no binding”.
On the same count and under the same terms, the same measure for B23: “no binding”; for B24: “binds”; for B25: “binds”.
Same read-out and setting: the same measure for B26: “binds”; for B27: “no binding”.

The target in a further test is T1, VEGFR-3-Fc. Put plainly: receptor-Fc IP. In a few lines: as §1
Take B1: the binding result is on record as “no binding”.
Turning to B2, the binding result was “no binding”.
With B3, the binding result is “no binding”.
On the same count and under the same terms, next, B4: “no binding”.
Regarding B5, the binding result is recorded as “no binding”.
As to B6, the binding result is on record as “no binding”.
For B7, the binding result is reported as “no binding”.
Same read-out and setting: next, B8: “no binding”.
The same measure, in the same setting: the same measure for B9: “no binding”; for B10: “no binding”.
As to B11, the binding result is recorded as “no binding”.
Turning to B12, the binding result is “no binding”.
Still for that read-out and setting: the same measure for B13: “no binding”; for B14: “no binding”.
On the same count and under the same terms, next, B15: “no binding”; B16: “no binding”.
Turning to B17, the binding result is on record as “no binding”.
Consider B18, for which the binding result is “no binding”.
With B19, the binding result is on record as “no binding”.
Consider B20, for which the binding result was “no binding”.
As to B21, the binding result is listed as “no binding”.
Turning to B22, the binding result was “no binding”.
For B23, the binding result was “no binding”.
Still for that read-out and setting: next, B24: “no binding”; B25: “no binding”.
For B26, the binding result is reported as “no binding”.
For B27, the binding result was “binds”.
